Source: patent publication US20180369373A1 (INNATE PHARMA, published 2018)

Target: T1, human NKp46 (isoform a), expressed on cells (human, UniProt O76036 22-304)
T1 construct: also called huNKp46; Raji-huNKp46 Low
Assay: IHC on FFPE cell pellets (Raji transfectants, SNK6) and human spleens, antibody at 5 and 10 pg/ml as printed

T1 sequence (O76036 22-304 Q82K limits assumed): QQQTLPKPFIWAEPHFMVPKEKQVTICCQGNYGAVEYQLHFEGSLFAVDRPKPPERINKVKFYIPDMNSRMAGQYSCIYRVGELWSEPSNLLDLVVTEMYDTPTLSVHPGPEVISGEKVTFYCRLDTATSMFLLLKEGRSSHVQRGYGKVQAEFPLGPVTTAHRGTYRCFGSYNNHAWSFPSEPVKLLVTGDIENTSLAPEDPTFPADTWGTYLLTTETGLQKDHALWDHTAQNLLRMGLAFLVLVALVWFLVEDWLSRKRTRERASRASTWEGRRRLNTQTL

binding result: binds
B1: 8E5B antibody (antibody, mouse IgG1, V domains shown)
VH: EIQLQQSGAELVKPGASVKLSCTASGFNIKDTYFHWVKQRPEQGLEWIGRIDPANGNTKYDPKFHDKATIIADISSNTAYLQFSSLTSEDTAVYYCAANRYGYWGQGTTLTVSS
VL: DIVMTQAAPSIPVTPGESVSISCRSSKSLLYINGNTHLFWFLQRPGQSPQLLIYRMSNLASGVPDRFSGSGSGTAFTLRISRVEAEDVGVYYCMQHLEYPFTFGSGTKLEIK
notes: Mouse monoclonal antibody; also called 8E5-B clone; monoclonal antibody 8E5B
